Experimental data from paper PMC8722725, “Histone H3 deacetylation promotes host cell viability for efficient infection by Listeria monocytogenes” (PLoS Pathogens, 2021).

Target: T1, mCherry-TDP-43 (UniProt Q13148 1-414)
T1 construct: TDP-43, cloned from the plasmid TDP43 NOTAG1 (Addgene #28206); also called pmCherry TDP-43; source: HeLa, co-transfected, in lysate
Assay: co-IP; RFP-Trap agarose beads on lysate of HeLa cells co-transfected with mCherry-TDP-43 and SIRT2-GFP variants; blot for TDP-43 and GFP
Conditions: partners not purified

T1 sequence (Q13148 whole entry): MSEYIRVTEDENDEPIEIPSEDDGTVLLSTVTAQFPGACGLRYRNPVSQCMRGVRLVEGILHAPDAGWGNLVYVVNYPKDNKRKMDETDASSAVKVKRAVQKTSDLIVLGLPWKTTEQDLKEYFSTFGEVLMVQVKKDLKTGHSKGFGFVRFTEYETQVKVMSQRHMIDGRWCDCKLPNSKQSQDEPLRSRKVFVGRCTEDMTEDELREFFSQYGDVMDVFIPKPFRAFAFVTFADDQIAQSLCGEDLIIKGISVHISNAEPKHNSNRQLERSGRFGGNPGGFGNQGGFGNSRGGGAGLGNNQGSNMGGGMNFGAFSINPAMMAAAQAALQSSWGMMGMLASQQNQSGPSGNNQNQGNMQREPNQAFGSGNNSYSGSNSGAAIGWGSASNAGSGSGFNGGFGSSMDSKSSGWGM

B1: dephosphomimetic S25A SIRT2-GFP (enzyme, UniProt Q8IXJ6 1-389, looked up)
chain: MAEPDPSHPLETQAGKVQEAQDSDADSEGGAAGGEADMDFLRNLFSQTLSLGSQKERLLDELTLEGVARYMQSERCRRVICLVGAGISTSAGIPDFRSPSTGLYDNLEKYHLPYPEAIFEISYFKKHPEPFFALAKELYPGQFKPTICHYFMRLLKDKGLLLRCYTQNIDTLERIAGLEQEDLVEAHGTFYTSHCVSASCRHEYPLSWMKEKIFSEVTPKCEDCQSLVKPDIVFFGESLPARFFSCMQSDFLKVDLLLVMGTSLQVQPFASLISKAPLSTPRLLINKEKAGQSDPFLGMIMGLGGGMDFDSKKAYRDVAWLGECDQGCLALAELLGWKKELEDLVRREHASIDAQSGAGVPNPSTSASPKKSPPPAKDEARTTEREKPQ
notes: Sirtuin 2 (SIRT2) with the dephosphomimetic change S25A; also called S25A dephosphomimetic; source: HeLa, co-transfected, in lysate
  fold increase in co-precipitation relative to the WT variant: ~2.5 fold
